Assay results: paper PMC7593309, “Structural insights into Arabidopsis ethylene response factor 96 with an extended N-terminal binding to GCC box”

Legend:
AtERF96 WT [1] = target: T1, AtERF96 WT (Arabidopsis thaliana, UniProt Q9LSX0 1-131); assay: X-ray crystallography; 1.76 A; fEMSA: 30 mM HEPES pH 7.4, 62.5 mM NaCl, 5% glycerol, 30 min RT, gel at 4 C; FP: 30 mM HEPES pH 7.4, 250 mM NaCl, 10% glycerol, 10 nM probe final (20 nM mixed 1:1); conditions: protein: recombinant; tags: N-terminal 6xHis (pET28a); blunt
AtERF96 WT [2] = target: T1, AtERF96 WT; assay: fluorescence polarization; two-site fit (KdHi, KdLo); fEMSA: 30 mM HEPES pH 7.4, 62.5 mM NaCl, 5% glycerol, 30 min RT, gel at 4 C; FP: 30 mM HEPES pH 7.4, 250 mM NaCl, 10% glycerol, 10 nM probe final (20 nM mixed 1:1); conditions: protein: recombinant; tags: N-terminal 6xHis (pET28a); label: 5'-fluorescein on forward strand
AtERF96 WT [3] = target: T1, AtERF96 WT; assay: EMSA; fEMSA: 30 mM HEPES pH 7.4, 62.5 mM NaCl, 5% glycerol, 30 min RT, gel at 4 C; FP: 30 mM HEPES pH 7.4, 250 mM NaCl, 10% glycerol, 10 nM probe final (20 nM mixed 1:1); conditions: protein: recombinant; tags: N-terminal 6xHis (pET28a); label: 5'-fluorescein on forward strand; blunt

T1 sequence (Q9LSX0 whole entry): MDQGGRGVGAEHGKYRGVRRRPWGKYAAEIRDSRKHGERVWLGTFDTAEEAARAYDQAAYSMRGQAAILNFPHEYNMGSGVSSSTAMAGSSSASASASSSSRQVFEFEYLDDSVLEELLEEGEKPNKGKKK

B1: GCC11 (crystal) (dsDNA)
DNA 1: TAGCCGCCAGC
DNA 2: GCTGGCGGCTA
Q: Does B1 bind (AtERF96 WT [1])?
A: binds

B2: GCC12 (dsDNA)
DNA 1: GTAGCCGCCAGC
DNA 2: GCTGGCGGCTAC
Q: Does B2 bind (AtERF96 WT [2])?
A: binds

B3: GCC11 probe (fEMSA) (dsDNA)
DNA 1: TAGCCGCCAGC
DNA 2: GCTGGCGGCTA
Q: Does B3 bind (AtERF96 WT [3])?
A: binds
